The target in the experiment is interleukin-6 (IL-6) (human) (UniProt P05231). As to the kind of experiment: SPR; IL-6 amine-coupled on a CM5 chip (Biacore T200); analytes in multi-cycle kinetics, 0.39 to 100 nM, 30 µL/min, 180 s association, 1200 s dissociation, HBS-N + 10 mM CaCl2; global fit, 1:1 model; where koff was below the detection limit KD was estimated from kon and the theoretical maximum koff.
Chain of interleukin-6 (IL-6) (human) (P05231 30-212): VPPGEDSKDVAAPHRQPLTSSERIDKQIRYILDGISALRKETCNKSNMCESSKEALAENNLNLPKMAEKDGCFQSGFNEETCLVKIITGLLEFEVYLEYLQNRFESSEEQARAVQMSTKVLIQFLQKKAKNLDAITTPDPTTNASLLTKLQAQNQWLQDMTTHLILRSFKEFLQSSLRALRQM

The term Kd denotes a measure of binding affinity in units of concentration. As to “sIL-6R-TGN 1:5 (from UniProt P08887 20-355) (receptor)”, the Kd is 428 nM.
As a reminder, the koff is the first-order rate constant of dissociation. Broadly, the kon is the second-order rate constant of association. On to “soluble IL-6 receptor (sIL-6R) (from UniProt P08887 20-355)”, for which the Kd is 131 nM, the koff is 0.035 s⁻¹ and the kon was 248000 M⁻¹ s⁻¹.

Values taken from article PMC13083842.
